In paper PMC9276948:

Molecular target: GST-MoMkk1 (Magnaporthe oryzae) (UniProt G4N6Z6)
Assay: MST

Substance: His-MoPtc1 (enzyme)
- Kd: 1050 nM

Substance: His-MoPtc2 (enzyme)
- Kd: 2270 nM
